This series concerns the molecule itself. As to the kind of experiment: ThT fluorescence + AFM.

Regarding VANAFIICGTLYTVSSY [peptide P3 (V426ANAFIICGTLYTVSSY) of myoc-OLF], the binding result was “binds”.
Regarding GAVVYSGSLYFQ [peptide P1 (G326AVVYSGSLYFQ) of myoc-OLF], the binding result was “binds”.

Source of the values: article PMC3946817 (Journal of molecular biology, 2013).
